Laboratory results as given in US20250136695A1 (PERSONGEN BIOTHERAPEUTICS SUZHOU, published 2025).

Key:
[1] = target: T1, PDL1 expressed on recombinant CHO cells (CHO-K1/PDL1; aAPC CHO-PDL1) (UniProt Q9NZQ7 19-290, limits assumed); test: cell-based or functional assay
[2] = target: T1, PDL1 expressed on recombinant CHO cells …; test: cell-based or functional assay; remark: listed apart in the source
[3] = target: T1, PDL1 expressed on recombinant CHO cells …; test: cell-based or functional assay; remark: listed apart in the source
[4] = target: T2, PDL1-His (UniProt Q9NZQ7 19-238, limits assumed); test: BLI (OCTET R2), Fc-tagged antibody on protein A probes, PDL1-His as mobile phase
T2 construct: not shown: His tag
T2 sequence (Q9NZQ7 19-238 limits assumed): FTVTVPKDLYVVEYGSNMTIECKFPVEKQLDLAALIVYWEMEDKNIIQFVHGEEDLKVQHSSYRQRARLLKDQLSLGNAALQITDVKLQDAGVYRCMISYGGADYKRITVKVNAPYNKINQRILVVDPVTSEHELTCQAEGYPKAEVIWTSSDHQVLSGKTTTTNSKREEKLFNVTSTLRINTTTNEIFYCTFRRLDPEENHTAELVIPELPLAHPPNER

T1 sequence (Q9NZQ7 19-290 limits assumed): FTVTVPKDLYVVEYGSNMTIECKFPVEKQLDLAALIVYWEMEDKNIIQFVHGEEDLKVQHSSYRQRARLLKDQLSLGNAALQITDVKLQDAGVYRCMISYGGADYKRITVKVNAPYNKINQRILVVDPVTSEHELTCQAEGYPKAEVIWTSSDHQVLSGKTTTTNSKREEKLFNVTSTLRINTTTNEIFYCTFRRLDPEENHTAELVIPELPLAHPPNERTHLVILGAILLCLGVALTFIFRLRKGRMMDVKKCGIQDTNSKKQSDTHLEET

| EC50 of the PD1/PDL1 Block Assay (luciferase fold of induction, Jurkat-PD1-NFAT-Luc + aAPC CHO-PDL1); printed as 03-17-A06; the table gives no unit, the axis is in µg/mL [1] [µg/mL] | EC50 of PD-1/PDL1 blocking against Nivolumab ([…] µg/mL), same reporter assay [2] [µg/mL] | EC50 of the PD1/PDL1 Block Assay (luciferase fold of induction, Jurkat-PD1-NFAT-Luc + aAPC CHO-PDL1); printed as 03-23-G3; the table gives no unit, the axis is in µg/mL [1] [µg/mL] | EC50 of the PD1/PDL1 Block Assay (luciferase fold of induction, Jurkat-PD-1-NFAT-Luc + aAPC CHO-PDL1) [3] [µg/mL] | Kd [4] [nM] | koff [4] [s⁻¹] | kon [4] [M⁻¹ s⁻¹] | EC50 of the PD1/PDL1 Block Assay (luciferase fold of induction, Jurkat-PD1-NFAT-Luc + aAPC CHO-PDL1); printed as 03-29-H9; the table gives no unit, the axis is in µg/mL [1] [µg/mL] | Binder |
| --- | --- | --- | --- | --- | --- | --- | --- | --- |
| 1.96 | > 0.322 | – | – | – | – | – | – | 17-A06 (VHH fused to human IgG1 Fc) (Fc fusion, not shown: a dimerising Fc or GST) MAQVKLEESGGGLVQAGGSLRLSCVASGRSFITYAVGWFRQAPGKEREFVASINWSGAMTYYTDSVNGRFAISRDNAKNTVYLQMNNLKLEDTAVYYCASTISAVTPTNGYQNWGQGTQVTVSS |
| – | > 0.322 | 3.45 | – | – | – | – | – | 23-G3 (VHH fused to human IgG1 Fc) (Fc fusion, not shown: a dimerising Fc or GST) MAAVQLVESGGGLVQAGGSLRLSCVASGRSFITYAVGWFRQAPGKEREFVASVNWSGAMTYYADAVNGRFTISRDNAKNTVYLQMNNLKLEDTAVYYCAATISAVTPTNGYQNWGQGTQVTVSS |
| – | – | – | 2.06 | 4.2 | 0.000649 | 155000 | – | 17-A06-G4S-23-G3 (Fc fusion, also called bivalent antibody 17-A06-G4S-23-G3; bivalent PDL1 antibody; not shown: Fc tag ('Fc-tagged')) MAQVKLEESGGGLVQAGGSLRLSCVASGRSFITYAVGWFRQAPGKEREFVASINWSGAMTYYTDSVNGRFAISRDNAKNTVYLQMNNLKLEDTAVYYCASTISAVTPTNGYQNWGQGTQVTVSSGGGGSMAAVQLVESGGGLVQAGGSLRLSCVASGRSFITYAVGWFRQAPGKEREFVASVNWSGAMTYYADAVNGRFTISRDNAKNTVYLQMNNLKLEDTAVYYCAATISAVTPTNGYQNWGQGTQVTVSS |
| – | – | – | 1.35 | 2.73 | 0.00048 | 176000 | – | 17-A06-G4S-29-H9 (Fc fusion, also called bivalent antibody 17-A06-G4S-29-H9; bivalent PDL1 antibody; not shown: Fc tag ('Fc-tagged')) MAQVKLEESGGGLVQAGGSLRLSCVASGRSFITYAVGWFRQAPGKEREFVASINWSGAMTYYTDSVNGRFAISRDNAKNTVYLQMNNLKLEDTAVYYCASTISAVTPTNGYQNWGQGTQVTVSSGGGGSRLQLVESGGGLVQAGGSLRLSCAASGFTFSTYAMSWYRGVPEKERELVAFISSDGGGTTYRDSVKGRFTISRDNGKNTVYLQMNSLKPEDTGVYYCARGLAQIWGQGTQVTVSS |
| – | – | – | – | 1.92 | 0.000455 | 238000 | – | 23-G3-G4S-29-H9 (Fc fusion, also called bivalent antibody 23-G3-G4S-29-H9; bivalent PDL1 antibody; not shown: Fc tag ('Fc-tagged')) MAAVQLVESGGGLVQAGGSLRLSCVASGRSFITYAVGWFRQAPGKEREFVASVNWSGAMTYYADAVNGRFTISRDNAKNTVYLQMNNLKLEDTAVYYCAATISAVTPTNGYQNWGQGTQVTVSSGGGGSRLQLVESGGGLVQAGGSLRLSCAASGFTFSTYAMSWYRGVPEKERELVAFISSDGGGTTYRDSVKGRFTISRDNGKNTVYLQMNSLKPEDTGVYYCARGLAQIWGQGTQVTVSS |
| – | > 0.322 | – | – | – | – | – | 1.44 | 29-H9 (VHH fused to human IgG1 Fc) (Fc fusion, not shown: a dimerising Fc or GST) RLQLVESGGGLVQAGGSLRLSCAASGFTFSTYAMSWYRGVPEKERELVAFISSDGGGTTYRDSVKGRFTISRDNGKNTVYLQMNSLKPEDTGVYYCARGLAQIWGQGTQVTVSS |
